The target of the experiment is T1, GR W712A-LgBiT (human, UniProt P04150 1-777, W712A).
T1 sequence: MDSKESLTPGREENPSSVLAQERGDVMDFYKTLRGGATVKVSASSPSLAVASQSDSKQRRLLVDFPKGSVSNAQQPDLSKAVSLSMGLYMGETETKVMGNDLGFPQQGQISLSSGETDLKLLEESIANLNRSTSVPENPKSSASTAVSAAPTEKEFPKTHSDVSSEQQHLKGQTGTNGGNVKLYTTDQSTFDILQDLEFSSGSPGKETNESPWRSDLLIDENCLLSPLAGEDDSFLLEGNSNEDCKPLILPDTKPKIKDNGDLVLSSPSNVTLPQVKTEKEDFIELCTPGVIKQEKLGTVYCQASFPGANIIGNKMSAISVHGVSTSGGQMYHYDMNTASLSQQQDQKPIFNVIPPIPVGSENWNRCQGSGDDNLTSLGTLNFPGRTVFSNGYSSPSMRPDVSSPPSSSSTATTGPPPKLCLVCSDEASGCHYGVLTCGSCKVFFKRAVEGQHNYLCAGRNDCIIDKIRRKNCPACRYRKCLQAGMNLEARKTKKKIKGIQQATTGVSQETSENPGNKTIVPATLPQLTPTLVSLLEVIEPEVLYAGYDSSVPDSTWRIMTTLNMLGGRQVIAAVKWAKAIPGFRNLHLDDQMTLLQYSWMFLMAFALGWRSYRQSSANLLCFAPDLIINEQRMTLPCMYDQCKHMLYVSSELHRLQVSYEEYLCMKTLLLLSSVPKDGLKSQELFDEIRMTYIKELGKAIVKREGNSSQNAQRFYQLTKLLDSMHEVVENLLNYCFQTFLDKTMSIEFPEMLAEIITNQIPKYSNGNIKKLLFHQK
In words: split reporter.

B1: MR-SmBiT (mineralocorticoid receptor with C-terminal NanoBit small tag) (receptor)
chain: METKGYHSLPEGLDMERRWGQVSQAVERSSLGPTERTDENNYMEIVNVSCVSGAIPNNSTQGSSKEKQELLPCLQQDNNRPGILTSDIKTELESKELSATVAESMGLYMDSVRDADYSYEQQNQQGSMSPAKIYQNVEQLVKFYKGNGHRPSTLSCVNTPLRSFMSDSGSSVNGGVMRAVVKSPIMCHEKSPSVCSPLNMTSSVCSPAGINSVSSTTASFGSFPVHSPITQGTPLTCSPNVENRGSRSHSPAHASNVGSPLSSPLSSMKSSISSPPSHCSVKSPVSSPNNVTLRSSVSSPANINNSRCSVSSPSNTNNRSTLSSPAASTVGSICSPVNNAFSYTASGTSAGSSTLRDVVPSPDTQEKGAQEVPFPKTEEVESAISNGVTGQLNIVQYIKPEPDGAFSSSCLGGNSKINSDSSFSVPIKQESTKHSCSGTSFKGNPTVNPFPFMDGSYFSFMDDKDYYSLSGILGPPVPGFDGNCEGSGFPVGIKQEPDDGSYYPEASIPSSAIVGVNSGGQSFHYRIGAQGTISLSRSARDQSFQHLSSFPPVNTLVESWKSHGDLSSRRSDGYPVLEYIPENVSSSTLRSVSTGSSRPSKICLVCGDEASGCHYGVVTCGSCKVFFKRAVEGQHNYLCAGRNDCIIDKIRRKNCPACRLQKCLQAGMNLGARKSKKLGKLKGIHEEQPQQQQPPPPPPPPQSPEEGTTYIAPAKEPSVNTALVPQLSTISRALTPSPVMVLENIEPEIVYAGYDSSKPDTAENLLSTLNRLAGKQMIQVVKWAKVLPGFKNLPLEDQITLIQYSWMCLSSFALSWRSYKHTNSQFLYFAPDLVFNEEKMHQSAMYELCQGMHQISLQFVRLQLTFEEYTIMKVLLLLSTIPKDGLKSQAAFEEMRTNYIKELRKMVTKCPNNSGQSWQRFYQLTKLLDSMHDLVSDLLEFCFYTFRESHALKVEFPAMLVEIISDQLPKVESGNAKPLYFHRK
In the case of B1, the “reconstituted luciferase activity relative to WT receptors” value was 32%.

These data come from publication PMC12135382 (The Journal of Biological Chemistry, 2025).
